Laboratory results reported in PMC5321513 (Structure (London, England : 1993), 2017).
Changes are numbered by the printed parent chain. Like-named read-outs stand apart in the source and are kept apart here. [ ]: non-standard residue; d: D form. pS = N[C@@H](COP(=O)(O)O)C(=O)O

What was measured:
[1] = biological target: T1, 14-3-3β (1-232) (human, UniProt P31946 1-232); experiment: SEC
T1 sequence: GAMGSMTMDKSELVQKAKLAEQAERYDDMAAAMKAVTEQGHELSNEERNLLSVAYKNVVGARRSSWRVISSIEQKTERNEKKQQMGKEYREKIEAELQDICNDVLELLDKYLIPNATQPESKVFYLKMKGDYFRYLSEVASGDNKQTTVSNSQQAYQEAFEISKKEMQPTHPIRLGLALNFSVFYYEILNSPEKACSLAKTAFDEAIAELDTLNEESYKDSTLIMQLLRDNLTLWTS

[2] = biological target: T2, full-length human 14-3-3ζ (human, UniProt P63104 1-245); experiment: SEC
T2 sequence (looked up): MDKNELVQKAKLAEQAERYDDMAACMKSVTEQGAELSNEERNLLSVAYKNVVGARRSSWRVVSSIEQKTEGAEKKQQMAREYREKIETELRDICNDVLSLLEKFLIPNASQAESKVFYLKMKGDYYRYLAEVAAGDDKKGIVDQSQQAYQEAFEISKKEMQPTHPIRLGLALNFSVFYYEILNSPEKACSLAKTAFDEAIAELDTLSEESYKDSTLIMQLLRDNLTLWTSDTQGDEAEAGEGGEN

[3] = biological target: T3, full-length human 14-3-3γ (human, UniProt P61981 1-247); experiment: SEC
T3 sequence (looked up): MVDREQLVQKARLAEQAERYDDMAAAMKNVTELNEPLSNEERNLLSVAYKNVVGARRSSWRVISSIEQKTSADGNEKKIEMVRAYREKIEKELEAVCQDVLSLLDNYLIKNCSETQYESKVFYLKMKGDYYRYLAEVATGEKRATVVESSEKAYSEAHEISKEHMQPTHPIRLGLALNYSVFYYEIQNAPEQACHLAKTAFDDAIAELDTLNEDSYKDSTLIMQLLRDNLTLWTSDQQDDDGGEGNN

[4] = biological target: T4, 14-3-3σ WT (1-231) (human, UniProt P31947 1-231); experiment: SEC
T4 sequence: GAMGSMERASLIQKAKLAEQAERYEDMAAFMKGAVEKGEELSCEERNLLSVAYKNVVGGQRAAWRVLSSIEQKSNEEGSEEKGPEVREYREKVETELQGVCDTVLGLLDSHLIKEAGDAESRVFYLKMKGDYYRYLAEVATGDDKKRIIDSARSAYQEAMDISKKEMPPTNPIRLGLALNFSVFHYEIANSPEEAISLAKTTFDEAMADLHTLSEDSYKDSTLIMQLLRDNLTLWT

[5] = biological target: T5, 14-3-3η (1-235) (human, UniProt Q04917 1-235); experiment: SEC
T5 sequence: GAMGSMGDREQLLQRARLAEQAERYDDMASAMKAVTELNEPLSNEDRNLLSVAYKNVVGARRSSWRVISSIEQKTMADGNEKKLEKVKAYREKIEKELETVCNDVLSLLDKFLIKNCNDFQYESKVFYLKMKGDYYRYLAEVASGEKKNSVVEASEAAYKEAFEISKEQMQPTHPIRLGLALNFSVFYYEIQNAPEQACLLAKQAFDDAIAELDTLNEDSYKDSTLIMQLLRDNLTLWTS

[6] = biological target: T6, 14-3-3τ (1-230) (human, UniProt P27348 1-230); experiment: SEC
T6 sequence: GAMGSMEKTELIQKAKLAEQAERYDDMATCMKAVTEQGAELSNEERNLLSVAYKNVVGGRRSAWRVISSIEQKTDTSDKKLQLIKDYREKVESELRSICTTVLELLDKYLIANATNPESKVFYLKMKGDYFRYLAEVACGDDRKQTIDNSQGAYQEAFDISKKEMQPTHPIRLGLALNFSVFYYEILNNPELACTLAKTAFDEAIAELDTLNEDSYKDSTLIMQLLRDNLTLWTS

[7] = biological target: T7, 14-3-3ε (1-232) (human, UniProt P62258 1-232); experiment: SEC
T7 sequence: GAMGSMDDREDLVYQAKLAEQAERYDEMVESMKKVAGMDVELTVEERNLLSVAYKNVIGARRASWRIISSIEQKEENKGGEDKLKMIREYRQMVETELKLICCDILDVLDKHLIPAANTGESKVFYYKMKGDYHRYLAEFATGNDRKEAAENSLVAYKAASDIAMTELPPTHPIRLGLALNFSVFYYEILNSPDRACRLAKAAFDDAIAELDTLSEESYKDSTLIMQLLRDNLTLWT

[8] = biological target: T8, 14-3-3σ Clu1 (1-231) (human, UniProt P31947 1-231, 159KKE161 → AAA); experiment: crystal structure
T8 sequence: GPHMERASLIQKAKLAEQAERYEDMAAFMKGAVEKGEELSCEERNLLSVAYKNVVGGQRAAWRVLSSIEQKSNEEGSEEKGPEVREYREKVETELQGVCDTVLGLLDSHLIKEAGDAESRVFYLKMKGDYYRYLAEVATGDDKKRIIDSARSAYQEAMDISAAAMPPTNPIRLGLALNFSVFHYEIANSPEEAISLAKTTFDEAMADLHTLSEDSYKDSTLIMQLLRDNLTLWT

[9] = biological target: T9, 14-3-3σ Clu3 (1-231) (human, UniProt P31947 1-231, 75EEK77 → AAA); experiment: crystal structure
T9 sequence: T8 sequence with E78A, E79A, K80A, A162K, A163K, A164E

[10] = biological target: T4, 14-3-3σ WT (1-231); experiment: other fluorescence titration
[11] = biological target: T8, 14-3-3σ Clu1 (1-231); experiment: crystal structure; remark: listed apart in the source
[12] = biological target: T4, 14-3-3σ WT (1-231); experiment: other fluorescence titration; remark: listed apart in the source
[13] = biological target: T3, full-length human 14-3-3γ; experiment: ITC
[14] = biological target: T4, 14-3-3σ WT (1-231); experiment: ITC

B1: pHSPB6 (7-153) (domain or fragment, human, UniProt O14558 7-153, looked up)
chain: VQPSWLRRASAPLPGLSAPGRLFDQRFGEGLLEAELAALCPTTLAPYYLRAPSVALPVAQVPTDPGHFSVLLDVKHFSPEEIAVKVVGEHVEVHARHEERPDEHGFVAREFHRRYRLPPGVDPAAVTSALSPEGVLSIQAAPASAQA
modifications: phosphoserine at 16
[1]
  binding result: binds
[2]
  binding result: binds
[3]
  binding result: binds
[4]
  binding result: binds
[5]
  binding result: binds
[6]
  binding result: binds
[7]
  binding result: binds
[8]
  binding result: binds

B2: pHSPB6(13-20) phosphopeptide (peptide, UniProt O14558 13-20, looked up)
peptide: H-RRA[pS]APLP-OH
SMILES: CC(C)C[C@H](NC(=O)[C@@H]1CCCN1C(=O)[C@H](C)NC(=O)[C@H](COP(=O)(O)O)NC(=O)[C@H](C)NC(=O)[C@H](CCCNC(=N)N)NC(=O)[C@@H](N)CCCNC(=N)N)C(=O)N1CCC[C@H]1C(=O)O
[9]
  binding result: binds

B3: full-length pHSPB6 (1-160) (natural protein, human, UniProt O14558 1-160, looked up)
chain: MEIPVPVQPSWLRRASAPLPGLSAPGRLFDQRFGEGLLEAELAALCPTTLAPYYLRAPSVALPVAQVPTDPGHFSVLLDVKHFSPEEIAVKVVGEHVEVHARHEERPDEHGFVAREFHRRYRLPPGVDPAAVTSALSPEGVLSIQAAPASAQAPPPAAAK
modifications: phosphoserine at 16
[1]
  binding result: binds
[2]
  binding result: binds
[3]
  binding result: binds
[5]
  binding result: binds
[6]
  binding result: binds
[7]
  binding result: binds
[8]
  binding result: binds

B4: AEDANS-labeled phosphorylated full-length HSPB6 (natural protein, human, UniProt O14558 1-160, looked up)
chain: B3 chain
modifications: phosphoserine at 16; 1,5-I-AEDANS moiety on Cys46 (extent of labeling 90%)
[10]
  Kd: 0.56 ± 0.2 µM

B5: pHSPB6 (1-149) (domain or fragment, human, UniProt O14558 1-149, looked up)
chain: MEIPVPVQPSWLRRASAPLPGLSAPGRLFDQRFGEGLLEAELAALCPTTLAPYYLRAPSVALPVAQVPTDPGHFSVLLDVKHFSPEEIAVKVVGEHVEVHARHEERPDEHGFVAREFHRRYRLPPGVDPAAVTSALSPEGVLSIQAAPA
modifications: phosphoserine at 16
[1]
  binding result: binds
[2]
  binding result: binds
[3]
  binding result: binds
[4]
  binding result: binds
[5]
  binding result: binds
[6]
  binding result: binds
[7]
  binding result: binds
[11]
  binding result: binds

B6: pHSPB6(11-23) phosphopeptide (peptide, UniProt O14558 11-23, looked up)
peptide: H-WLRRA[pS]APLPGLS-OH
SMILES: CC(C)C[C@H](NC(=O)CNC(=O)[C@@H]1CCCN1C(=O)[C@H](CC(C)C)NC(=O)[C@@H]1CCCN1C(=O)[C@H](C)NC(=O)[C@H](COP(=O)(O)O)NC(=O)[C@H](C)NC(=O)[C@H](CCCNC(=N)N)NC(=O)[C@H](CCCNC(=N)N)NC(=O)[C@H](CC(C)C)NC(=O)[C@@H](N)Cc1c[nH]c2ccccc12)C(=O)N[C@@H](CO)C(=O)O
[12]
  IC50: 28.9 ± 0.9 µM
  Kd: 5.2 ± 0.5 µM
[13]
  Kd: 2.3 ± 0.3 µM
  stoichiometry N: 1
[14]
  Kd: 6.3 ± 0.5 µM
  stoichiometry N: 1
